Experimental data taken from article PMC2199121.

Biological target: C57BL/6 and BALB/c IL-4Rs on transfected TF-1 cells (association rates told for both together)
Assay: radioligand binding

iodinated recombinant murine IL-4 (125I-IL-4) (from UniProt P07750 21-140) (ligand)
kon: 3.33e+06 to 4.33e+06 M⁻¹ s⁻¹
